Entries after “also recorded” stand apart in the source; their conditions may differ.

These results are taken from US20240228627A1, “GALECTIN-1-SPECIFIC MONOVALENT ANTIBODIES AND USES THEREOF” (INSTITUT NATIONAL DE LA RECHERCHE SCIENTIFIQUE, priority 2021, published 2024).

Assay [1] concerns the target T1, GAL-1-Biotin (biotinylated human GAL-1) (Homo sapiens, UniProt P09382).
T1 construct: made in house; host or cells: E. coli BL21 (DE3), pET-22b(+)
Briefly: non-adsorbed phage ELISA of VHH clones on GAL-1-Biotin. Format: binding. The note with it: HRP-conjugated anti-M13 antibody, TMB substrate; 282 clones tested. As to the method: Generation and production of single chain camelid antibodies. Galectin-specific single chain (VHH) camelid antibodies were obtained following in vitro screening of a non-immune humanized synthetic single domain antibodies (hsd2Ab) library that contains more than 3×10^9 clones expressed at the surface of M13 phage [Moutel et al., 2016]. The panning was carried out against immobilized recombinant human galectin-1 devoid of carbohydrate in its glycan binding site (GBS). Prior to the phage display selection, galectin-1-biotin and GST-Biotin were bound to streptavidin magnetic beads (Dynabeads® M-280 Streptavidin, Life Technologies) with a 50 nM final concentration of biotinylated protein for the first round and 10 nM final concentration of biotinylated protein for the second and third rounds. […] Following three-rounds of phage display, clones were picked randomly and analyzed by non-adsorbed phage ELISA using HRP-conjugated anti-M13 antibody (GE Healthcare) and a colorimetric substrate (TMB, tetramethylbenzidine, Thermo Fischer).
Following an initial pre-screen round of phage display carried out with GST-biotin to deplete the library from unspecific binders, unbound VHHs were incubated with GAL-1-Biotin beads. […] A total of 282 VHHs were then picked and analyzed by ELISA for galectin-1 binders.

In assay [2] the target is T2, recombinant human GAL-1 (rhGAL-1) (Homo sapiens, UniProt P09382).
T2 construct: made in house; host or cells: E. coli BL21 (DE3), pET-22b(+)
T2 sequence (P09382 whole entry): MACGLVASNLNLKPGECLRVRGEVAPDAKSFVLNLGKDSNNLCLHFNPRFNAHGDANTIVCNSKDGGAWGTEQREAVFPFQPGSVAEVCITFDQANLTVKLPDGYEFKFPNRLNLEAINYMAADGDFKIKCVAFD
Put plainly: inhibition of galectin-1-induced apoptosis of Jurkat T cells (annexin V/propidium iodide flow cytometry). The class given is cell-based. The note with it: rhGAL-1 2.25 μM, 4 h at 37° C., increasing concentrations of nanobody. As to the method:
Briefly, Jurkat T cells were incubated with recombinant human GAL-1 (rhGAL-1; 2.25 μM) for 4h at 37° C. in presence of increasing concentrations of G1N1 and G1N2. Apoptosis was measured by flow cytometry using conventional annexin V/propidium iodide staining. Results represent data recorded on 5000 cells. Errors bars represent standard deviation.
Jurkat T cells were incubated with increasing concentrations of G1N1 pre-incubated with rhGAL-1 (2.25 μM) for 4 h at 37° C., after which apoptosis was measured by flow cytometry using Annexin V/propidium iodide staining. 5000 events were recorded. Errors bars represent standard deviation.
Apoptosis of human T cells. In vitro apoptosis assays were carried out using the standard in vitro human Jurkat T cell model system, fluorescein isothiocyanate (FITC)-labeled annexin V (Biolegend, San Diego, CA, USA) and propidium iodide (PI). Briefly, recombinant galectin-1 was pre-incubated for 1 h at 4° C. in serum free RPMI 1640 medium before addition to Jurkat cells. The mixture was incubated at 37° C. for 4 h. Cells were then washed once in PBS and once in binding buffer (0.01 M HEPES, 0.14 M NaCl, 2.5 mM CaCl2, pH 7.4). For staining, cells were incubated for 15 min with FITC-labeled annexin V in the dark at room temperature. The PI (0.25 μg/mL) stain was added to cells just before analysis by flow cytometry.
For orientation: A flow cytometer gives signals particle by particle.

The target of assay [3] is T3, human GAL-7 (Homo sapiens, UniProt P47929).
T3 construct: made in house; host or cells: E. coli BL21 (DE3), pET-22b(+)
T3 sequence (P47929 whole entry): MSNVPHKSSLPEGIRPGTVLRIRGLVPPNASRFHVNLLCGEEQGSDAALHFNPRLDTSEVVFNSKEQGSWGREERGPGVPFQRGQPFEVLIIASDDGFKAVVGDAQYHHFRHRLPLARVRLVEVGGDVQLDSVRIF
Put plainly: inhibition of GAL-7-induced apoptosis of Jurkat T cells (annexin V/propidium iodide flow cytometry). Format: cell-based. As to conditions: human GAL-7 10 μM, 4 h at 37° C.

The target of a further assay is T4, human galectin-1 (Homo sapiens, UniProt P09382).
T4 construct: made in house; host or cells: E. coli BL21 (DE3), pET-22b(+)
T4 sequence (P09382 whole entry): as the sequence (P09382 whole entry) above
Briefly: microscale thermophoresis (MST) binding affinity, human galectin-1. As for the experimental part: (§1) FIGS. 9A-C show the binding affinities evaluated by microscale thermophoresis (MST) using various ligands over a range of 16 ligand concentrations allowing to obtain a full concentration-response curve. FIG. 9A: Red-NHS labeled human GAL-1 (5 nM) incubated with G1N1 or alpha-lactose (a-lactose). FIG. 9B: Red-NHS labeled G1N1 (2 nM) was used to study the affinity of G1N1 for mouse and human galectin-1. […] All experiments were performed in 20 mM Tris-HCl 150 mM NaCl and 0.1% F127. Binding affinities (Kd values) were determined from the fitted curves (three parameter dose-response curve) obtained from data of at least 3 independent experiments. For each value, 95% confidence intervals (Cl) are indicated.
(§2) Microscale thermophoresis (MST. Galectins were labeled using the RED-NHS labeling kit (Nanotemper Technologies, Germany) in accordance with the manufacturer's protocol. Unreacted dye was removed using the provided purification columns. Binding affinity assays were performed in 20 mM Tris-HCl, 150 mM NaCl and 0.1% F127. Samples were loaded into standard Monolith NT.115 capillaries and microscale thermophoresis was measured using a Monolith NT.115 Pico instrument (Nanotemper Technologies, Germany) at ambient temperature. Binding affinities (Kd values) were determined from the fitted curves (three parameter dose-response curve).
A general note: Microscale thermophoresis detects binding through changes in fluorescence in a small temperature gradient.

The next assay deals with T5, mouse galectin-1 (Mus musculus, UniProt P16045).
T5 construct: made in house; host or cells: E. coli BL21 (DE3), pET-22b(+)
T5 sequence (P16045 whole entry): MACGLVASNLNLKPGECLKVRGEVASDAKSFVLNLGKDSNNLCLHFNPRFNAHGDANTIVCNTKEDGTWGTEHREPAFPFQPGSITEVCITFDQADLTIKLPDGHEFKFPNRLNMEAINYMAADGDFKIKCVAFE
Briefly: microscale thermophoresis (MST) binding affinity, mouse galectin-1. As to conditions: Red-NHS labeled G1N1 (2 nM); 20 mM Tris-HCl 150 mM NaCl 0.1% F127. As to the method:
as §1, §2

For assay [4], the target named is T3, human GAL-7. Briefly: microscale thermophoresis (MST) binding, human GAL-7. As to conditions: at 10 μM; Red-NHS labeled G1N1 (2 nM). As for the experimental part: as §1, §2
The target of the next assay is T6, mouse GAL-7 (Mus musculus, UniProt O54974).
T6 sequence (O54974 1-136): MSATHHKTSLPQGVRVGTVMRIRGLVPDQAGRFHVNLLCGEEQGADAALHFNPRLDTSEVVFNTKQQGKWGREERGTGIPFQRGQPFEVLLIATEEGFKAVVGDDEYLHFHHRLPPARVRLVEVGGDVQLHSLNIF
Briefly: microscale thermophoresis (MST) binding, mouse GAL-7. The note with it: at 10 μM; Red-NHS labeled G1N1 (2 nM). As to the method:
as §1, §2

For the next assay, the target named is T7, human GAL-8 (Homo sapiens, UniProt O00214).
T7 sequence (O00214 1-317): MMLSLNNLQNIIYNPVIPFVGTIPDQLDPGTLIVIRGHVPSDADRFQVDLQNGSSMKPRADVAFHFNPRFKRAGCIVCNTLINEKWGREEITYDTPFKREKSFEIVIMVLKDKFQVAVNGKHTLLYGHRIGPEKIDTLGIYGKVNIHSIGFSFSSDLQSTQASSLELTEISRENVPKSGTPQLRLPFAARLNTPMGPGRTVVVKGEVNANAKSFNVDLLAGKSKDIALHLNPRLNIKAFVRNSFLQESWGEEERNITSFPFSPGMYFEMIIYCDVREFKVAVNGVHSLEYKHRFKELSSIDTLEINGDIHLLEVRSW
Put plainly: microscale thermophoresis (MST) binding, human GAL-8. As to conditions: at 10 μM; Red-NHS labeled G1N1 (2 nM). As to the method:
as §1, §2

Another assay deals with T8, human GAL-13 (Homo sapiens, UniProt Q9UHV8).
T8 construct: made in house; host or cells: E. coli BL21 (DE3), pET-22b(+)
T8 sequence (Q9UHV8 1-139): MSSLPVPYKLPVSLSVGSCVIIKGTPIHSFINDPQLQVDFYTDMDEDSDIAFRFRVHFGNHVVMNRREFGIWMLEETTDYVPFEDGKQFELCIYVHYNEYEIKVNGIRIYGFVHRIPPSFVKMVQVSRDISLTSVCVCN
Put plainly: microscale thermophoresis (MST) binding, human GAL-13. As to conditions: at 10 μM; Red-NHS labeled G1N1 (2 nM). As for the experimental part:
as §1, §2

Assay [5] deals with human galectin-1 versus galectin-2, -7, -13 and -16. Put plainly: ELISA binding of G1N1 to immobilized recombinant human galectins. As to conditions: human galectins immobilized at 1 and 5 μM; increasing concentrations of G1N1. As for the experimental part: Briefly, human galectins were immobilized at 1 and 5 μM for 16 h at 4° C. After a blocking step with PBS containing 10% (v/v) BSA (blocking buffer), increasing concentrations of G1N1 were added to each well and incubated for 1 h at room T° C. […] The colorimetric assay was carried out with 3,3′,5,5′-tetramethylbenzidine (Sigma-Aldrich, ON, Canada) according to the manufacturers recommendations.
ELISA assays. Recombinant human galectins were immobilized in 96-well plates at the indicated concentrations for 16 h at 4° C. After a blocking step with PBS containing 10% (v/v) bovine serum albumin (BSA) (blocking buffer), increasing concentrations of G1N1 were added to each well and incubated for 1 h at room temperature. […] The colorimetric assay was carried out with TMB (Sigma-Aldrich, MO, USA) according to the manufacturer's recommendations.
For orientation: In an ELISA, binding on a coated surface is turned into a signal by an enzyme label.

T1 sequence (P09382 whole entry): as the sequence (P09382 whole entry) above

B1: G1N1: galectin-1-specific single-domain camelid VHH nanobody, SEQ ID NO:8; lead clone from phage display of a humanized synthetic library (protein)
VHH: MAEVQLQASGGGFVQPGGSLRLSCAASGSTFSEDAMGWFRQAPGKEREFVSAISGFANPHSYYADSVKGRFTISRDNSKNTVYLQMNSLRAEDTATYYCAASHKKTRAPAATFETYWGQGTQVTVSS
modifications: full sequence of G1N1 VHH
Take B1: in assay [1], the “binding in phage ELISA in the presence of GAL-1-Biotin” value was “strong binding; also recorded: strong positive hit”. Moreover, the “inhibition of galectin-1-induced apoptosis of Jurkat T cells” value in assay [2] was “strong and significant inhibition”. Also, the “inhibition of GAL-7-induced apoptosis of Jurkat T cells” value with human GAL-7 [3] was “did not inhibit; also recorded: No significant inhibition”. For the same molecule, in the assay with human galectin-1 (MST, Red-NHS labeled human GAL-1 (5 nM) with G1N1 or alpha-lactose), the “affinity for galectin-1 relative to the affinity of lactose for galectin-1” value is on record as “approximately 200 fold”. The “binding affinity (Kd) for human recombinant galectin-1 by MST” value with human galectin-1 (Red-NHS labeled G1N1 (2 nM), 20 mM Tris-HCl 150 mM NaCl 0.1% F127) is given as “in the nanomolar range”. Besides, the “binding affinity (Kd) for mouse recombinant galectin-1 by MST” value with mouse galectin-1 is recorded as “in the nanomolar range”. Further, in the assay with human GAL-7 [4], the “binding to human GAL-7 by MST” value is “does not bind; also recorded: no binding was detected”. Moreover, in the assay with mouse GAL-7, the “binding to mouse GAL-7 by MST” value was “does not bind; also recorded: no binding was detected”. Further, the “binding to human GAL-8 by MST” value in the assay with human GAL-8 is “does not bind; also recorded: no binding was detected”. Further, the “binding to human GAL-13 by MST” value with human GAL-13 was “does not bind; also recorded: no binding was detected”. Besides, the “specificity for galectin-1 by ELISA against galectin-2, -7, -13 and -16” value in [5] was “specificity of G1N1 for galectin-1 was confirmed”.
